This note sets out measurements from the supplement of paper PMC10126150.

± gives the standard deviation of the averaged measurements.

For this data set, the system named is ATP. The data set is described as follows: switch fluorescence ratio, 500 uM ATP over buffer (Cy3 cluster intensity, sum of 5 cycles each) (fold (ratio)); higher = stronger signal-on switching upon ATP binding; sequences stand for … in TCGTCGGCAGCGTCAGATGTGTATAAGAGACAGTTTTTTTTTTTTTTTTTTTTTTTTT…TC. The following applies: aptamer strand: ATP DNA aptamer (quencher-CACCTGGGGGAGTATTGCGGAGGAAGG + anchor), 100 nM annealed; ATP concentration: 500 uM. The procedure, abridged: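 After annealing to 100 nM quencher-labelled ATP aptamer, Cy3-labelled switching-strand clusters on a modified Illumina MiSeq flow-cell were imaged in selection buffer. A second image followed after 15 min with 500 uM ATP at 22 °C, and five such buffer/ATP cycles were done, each separated by NaOH stripping and re-annealing. The fluorescence ratio, averaged per switch-domain sequence, is summed target-cycle over summed buffer-cycle Cy3 intensity per cluster, with clusters outside 100-1000 RFU excluded.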
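Also: ATP exposure 15 min at 22 °C before imaging.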

Regarding GGGAGGGACT, the switch fluorescence ratio was found to be 1.03 ± 0.051. For GGGAGGGGCC the value was 1.01 ± 0.026; for GGGAGGGGCG, 1 ± 0.023; for GGGAGGGGCT, 1.02 ± 0.068.

Consider GGGAGGGGGG, for which the switch fluorescence ratio turned out to be 0.994 ± 0.032.

Regarding GGGAGGGTCT, the switch fluorescence ratio worked out at 0.975 ± 0.016. For the sequence GGGAGGTAAT, the switch fluorescence ratio turned out to be 1 ± 0.056. Consider GGGAGGTATA, for which the switch fluorescence ratio is 0.969 ± 0.012. For the sequence GGGAGGTCAT, the switch fluorescence ratio amounted to 0.9731 ± 0.0065.

As to GGGAGGTGTT, the switch fluorescence ratio worked out at 1.037 ± 0.009. As to GGGAGTAGAC, the switch fluorescence ratio worked out at 1.02 ± 0.045.

In the case of GGGAGTAGTT, the switch fluorescence ratio came to 1.01 ± 0.025. With GGGAGTATTT the figure was 1 ± 0.034. With GGGAGTCCCA the figure was 0.9973 ± 0.0078. With GGGAGTGGCC the figure was 1.01 ± 0.032; with GGGAGTTCGG, 0.9597 ± 0.0092.

As to GGGAGTTGGA, the switch fluorescence ratio is 1.02 ± 0.024. Turning to GGGATAGAAG, the switch fluorescence ratio was 0.971 ± 0.019. Take GGGATATTAG: the switch fluorescence ratio was 0.994 ± 0.034. In the case of GGGATATTTT, the switch fluorescence ratio stood at 0.977 ± 0.018.

Regarding GGGATCATGT, the switch fluorescence ratio was 0.98 ± 0.014. With GGGATCCAGG the figure was 1.23 ± 0.087; with GGGATGAGTT, 0.98 ± 0.041; with GGGATGCTCT, 1.01 ± 0.017. For GGGATGGGAA the value was 1.02 ± 0.022; for GGGATGGGGT, 0.988 ± 0.029. For GGGATGGGTC the value was 0.985 ± 0.02; for GGGATGTGCT, 0.957 ± 0.012. As for GGGATGTGTT, the switch fluorescence ratio stood at 0.9635 ± 0.0069. For GGGATTAGTC the value was 1.05 ± 0.088; for GGGATTCGTC, 0.994 ± 0.02. Take GGGATTGGCA: the switch fluorescence ratio was 0.9798 ± 0.0092.

With GGGATTGTTT, the switch fluorescence ratio amounted to 0.965 ± 0.021.

GGGATTTGGG: the switch fluorescence ratio stood at 0.9745 ± 0.0088.

Turning to GGGATTTGTG, the switch fluorescence ratio was 0.972 ± 0.01.

For the sequence GGGCAACGAC, the switch fluorescence ratio came to 1.07 ± 0.0093.

For the sequence GGGCAACTTT, the switch fluorescence ratio worked out at 0.997 ± 0.049.

GGGCAAGAAT: the switch fluorescence ratio amounted to 0.997 ± 0.017. GGGCAAGGGG: the switch fluorescence ratio turned out to be 1.02 ± 0.028. For the sequence GGGCAAGTGG, the switch fluorescence ratio stood at 0.959 ± 0.014. For GGGCAATTAG the value was 1.15 ± 0.014; for GGGCAATTGC, 1.01 ± 0.059; for GGGCACGTTT, 0.995 ± 0.011. For GGGCAGATAT the value was 1.02 ± 0.017.

In the case of GGGCAGGGGG, the switch fluorescence ratio came out at 1.01 ± 0.04. Regarding GGGCATAAAG, the switch fluorescence ratio came to 1.02 ± 0.025. Turning to GGGCATAGGT, the switch fluorescence ratio was found to be 0.982 ± 0.018. For GGGCATGGCT the value was 0.99 ± 0.016. For GGGCCATAAG the value was 0.988 ± 0.052; for GGGCCATATT, 0.963 ± 0.044. For GGGCCATGGT the value was 0.9815 ± 0.0072; for GGGCCCATTG, 0.963 ± 0.04; for GGGCCCGCTG, 0.987 ± 0.049. On to GGGCCCGGGA, for which the switch fluorescence ratio is 0.986 ± 0.018. For GGGCCCGTAT the value was 1.014 ± 0.0091; for GGGCCCTGGT, 1.01 ± 0.013. With GGGCCGGCTG the figure was 1.01 ± 0.036; with GGGCCTCGGG, 0.953 ± 0.04; with GGGCCTGATG, 1.01 ± 0.012. For GGGCGAAGGG the value was 0.987 ± 0.032; for GGGCGGACGT, 0.969 ± 0.041; for GGGCGGGAAC, 1.014 ± 0.0088. Consider GGGCGGGGTG, for which the switch fluorescence ratio is 1.03 ± 0.025. As for GGGCGTCGTC, the switch fluorescence ratio is 0.993 ± 0.052. For the sequence GGGCTAGAGG, the switch fluorescence ratio turned out to be 0.974 ± 0.022.

As to GGGCTAGATG, the switch fluorescence ratio was 1 ± 0.018.

As for GGGCTAGTTA, the switch fluorescence ratio amounted to 0.9948 ± 0.0073. With GGGCTATAGA the figure was 0.9984 ± 0.0095; with GGGCTATAGC, 0.997 ± 0.056.

Regarding GGGCTATGCT, the switch fluorescence ratio was determined as 1 ± 0.037.

In the case of GGGCTCATCA, the switch fluorescence ratio was determined as 0.998 ± 0.041. For the sequence GGGCTGGTTC, the switch fluorescence ratio is 1.03 ± 0.017. For GGGCTGTAAG the value was 0.997 ± 0.04. For GGGCTGTGTG, the switch fluorescence ratio amounted to 1.02 ± 0.035. On to GGGCTTAGAG, for which the switch fluorescence ratio is 1.012 ± 0.007. With GGGCTTGCAA the figure was 1.04 ± 0.016; with GGGCTTTCTC, 1.09 ± 0.055; with GGGCTTTTGG, 0.9868 ± 0.0012. For GGGCTTTTTT the value was 0.98 ± 0.018; for GGGGAAAAAT, 1.01 ± 0.032; for GGGGAAAACA, 1 ± 0.014. For GGGGAAAGGC the value was 1.02 ± 0.018; for GGGGAAAGTA, 1.03 ± 0.03. For GGGGAAATAT, the switch fluorescence ratio turned out to be 0.981 ± 0.024. With GGGGAACTGG the figure was 1.01 ± 0.023; with GGGGAAGAAT, 0.9784 ± 0.0021; with GGGGAAGAGA, 0.96964 ± 5.5e-05. With GGGGAAGAGT the figure was 0.996 ± 0.052; with GGGGAAGATA, 0.9862 ± 0.0025. On to GGGGAAGGTG, for which the switch fluorescence ratio is 1.79 ± 1. As for GGGGAAGTAG, the switch fluorescence ratio was 0.994 ± 0.018. With GGGGAATCGC the figure was 0.97 ± 0.055; with GGGGAATGAA, 1.019 ± 0.009. On to GGGGAATGGG, for which the switch fluorescence ratio amounted to 1.01 ± 0.028.

In the case of GGGGAATGGT, the switch fluorescence ratio turned out to be 1.01 ± 0.074. With GGGGAATGTG, the switch fluorescence ratio turned out to be 0.963 ± 0.013.

For GGGGAATTAG, the switch fluorescence ratio came out at 0.973 ± 0.008. With GGGGACAGTT, the switch fluorescence ratio was determined as 1.02 ± 0.017. GGGGACCGGT: the switch fluorescence ratio came out at 1.054 ± 0.0023. On to GGGGACGGGA, for which the switch fluorescence ratio came out at 0.989 ± 0.024. On to GGGGACGGTA, for which the switch fluorescence ratio stood at 1.03 ± 0.027.

With GGGGACGTCA, the switch fluorescence ratio was found to be 0.998 ± 0.012. For GGGGACGTGG the value was 0.965 ± 0.011; for GGGGAGAAGG, 0.981 ± 0.031; for GGGGAGCGGC, 1.02 ± 0.0027. With GGGGAGGAAT, the switch fluorescence ratio was determined as 0.971 ± 0.024. Consider GGGGAGGACT, for which the switch fluorescence ratio is 1 ± 0.021. In the case of GGGGAGGAGG, the switch fluorescence ratio came to 0.986 ± 0.0087.

With GGGGAGGAGT, the switch fluorescence ratio was determined as 1.01 ± 0.026. As to GGGGAGGATT, the switch fluorescence ratio was determined as 0.986 ± 0.027. For GGGGAGGGTA the value was 1.03 ± 0.015; for GGGGAGTAGC, 0.999 ± 0.03; for GGGGAGTCGG, 1.01 ± 0.047.

As to GGGGAGTTCG, the switch fluorescence ratio was determined as 0.983 ± 0.019. Regarding GGGGATAAGG, the switch fluorescence ratio worked out at 0.984 ± 0.042. For GGGGATACGG the value was 1.026 ± 0.0047; for GGGGATAGAT, 0.982 ± 0.027. With GGGGATAGT the figure was 1 ± 0.015; with GGGGATGCGG, 1.02 ± 0.021. With GGGGATGCTC the figure was 1.03 ± 0.018.
